Consider seven molecules from PMC2749713 (Molecular cell, 2009).

Positions count from the first letter of the chain named. Numbers in names are those of the source. No end group written: not given here.

Assay [1] addresses AαB56γCα PP2A holoenzyme (human, UniProt P30153 2-589; Q13362 1-524; P67775 1-309). Kind of assay: SEC + other: dynamic light scattering.
Assay [2] has as its target FLAG-tagged MBP-Sgo1(47-105) (human, UniProt Q5FBB7 47-105). Kind of assay: pull-down.
The target of assay [3] is FLAG-tagged MBP-Sgo1(47-105) Y57A/K62A (dimerization assay) (human, UniProt Q5FBB7 47-105, Y57A | K62A). Kind of assay: pull-down.
The target in assay [4] is FLAG-tagged MBP-Sgo1(47-105) N60A/K62A (dimerization assay) (human, UniProt Q5FBB7 47-105, N60A | K62A). Kind of assay: pull-down.
Assay [5] addresses FLAG-tagged MBP-Sgo1(47-105) N61I (dimerization assay) (human, UniProt Q5FBB7 47-105, N61I). Kind of assay: pull-down.
Assay [6] deals with FLAG-Sgo1(51-105) peptide (human, UniProt Q5FBB7 51-105). Kind of assay: pull-down.
In assay [7] the target is FLAG-tagged MBP-Sgo1(47-105) Y57A/N60A (dimerization assay) (human, UniProt Q5FBB7 47-105, Y57A | N60A). Kind of assay: pull-down.
Assay [8] has as its target PP2A C subunit (Cα) (human, UniProt P67775 1-309). Kind of assay: crystal structure.

AαB56γCα PP2A holoenzyme, sequence (P30153 2-589, chain 1 of 3): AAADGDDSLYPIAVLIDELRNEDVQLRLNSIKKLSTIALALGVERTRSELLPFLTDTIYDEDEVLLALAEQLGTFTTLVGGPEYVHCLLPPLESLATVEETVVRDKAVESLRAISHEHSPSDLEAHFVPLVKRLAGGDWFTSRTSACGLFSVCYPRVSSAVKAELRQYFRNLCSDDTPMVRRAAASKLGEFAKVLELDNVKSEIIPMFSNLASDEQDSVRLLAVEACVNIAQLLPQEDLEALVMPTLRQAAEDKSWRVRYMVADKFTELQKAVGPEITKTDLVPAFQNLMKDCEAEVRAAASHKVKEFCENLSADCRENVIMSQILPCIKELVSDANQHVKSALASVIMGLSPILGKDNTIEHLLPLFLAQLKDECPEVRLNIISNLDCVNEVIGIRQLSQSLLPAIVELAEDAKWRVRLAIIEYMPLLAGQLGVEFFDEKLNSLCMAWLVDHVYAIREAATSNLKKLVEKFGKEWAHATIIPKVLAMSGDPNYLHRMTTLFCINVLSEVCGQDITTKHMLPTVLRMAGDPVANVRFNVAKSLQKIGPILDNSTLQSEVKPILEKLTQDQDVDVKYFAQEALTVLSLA
AαB56γCα PP2A holoenzyme, sequence (Q13362 whole entry, chain 2 of 3): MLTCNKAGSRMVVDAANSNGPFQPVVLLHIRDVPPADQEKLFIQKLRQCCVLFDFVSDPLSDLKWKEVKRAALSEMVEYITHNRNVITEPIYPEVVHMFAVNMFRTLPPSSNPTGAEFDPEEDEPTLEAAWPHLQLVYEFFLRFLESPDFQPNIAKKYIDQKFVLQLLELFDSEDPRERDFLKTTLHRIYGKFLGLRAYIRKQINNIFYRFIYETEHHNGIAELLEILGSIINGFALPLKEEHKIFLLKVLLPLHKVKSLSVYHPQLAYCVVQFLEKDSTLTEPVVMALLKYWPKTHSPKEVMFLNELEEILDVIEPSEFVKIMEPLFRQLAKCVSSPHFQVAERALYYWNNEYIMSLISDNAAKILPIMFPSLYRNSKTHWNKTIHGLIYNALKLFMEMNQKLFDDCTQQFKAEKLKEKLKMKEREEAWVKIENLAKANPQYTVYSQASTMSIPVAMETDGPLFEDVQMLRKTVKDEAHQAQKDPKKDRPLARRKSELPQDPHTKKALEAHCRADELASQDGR
AαB56γCα PP2A holoenzyme, sequence (P67775 whole entry, chain 3 of 3): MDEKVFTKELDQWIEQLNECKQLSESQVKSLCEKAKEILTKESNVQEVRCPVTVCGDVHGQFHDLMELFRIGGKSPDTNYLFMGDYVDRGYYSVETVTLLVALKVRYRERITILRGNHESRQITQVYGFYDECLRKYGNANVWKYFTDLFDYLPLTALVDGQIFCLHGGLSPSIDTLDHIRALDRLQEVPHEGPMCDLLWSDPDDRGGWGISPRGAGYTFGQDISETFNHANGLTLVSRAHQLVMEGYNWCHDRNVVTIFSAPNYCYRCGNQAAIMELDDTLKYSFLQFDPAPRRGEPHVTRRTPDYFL
PP2A C subunit (Cα), sequence (P67775 whole entry): as the sequence (P67775 whole entry, chain 3 of 3) above

B1: MBP-Sgo1(51-105) (domain or fragment, human, UniProt Q5FBB7 51-105, looked up)
chain: STLLKNYQDNNKMLVLALENEKSKVKEAQDIILQLRKECYYLTCQLYALKGKLTS
In the case of B1, the “stoichiometry N” value in assay [1] came out at 2 Sgo1 per PP2A holoenzyme. In assay [2], the binding result is “binds”.

B2: MBP-Sgo1(51-105) Y57A/K62A, untagged (dimerization assay) (domain or fragment, human, UniProt Q5FBB7 51-105, looked up)
chain: B1 chain with Y7A, K12A
modifications: cysteine pairing not given here; also: MBP fusion
In the case of B2, the binding result in assay [3] is given as “binds”.

B3: MBP-Sgo1(51-105) N60A/K62A, untagged (dimerization assay) (domain or fragment, human, UniProt Q5FBB7 51-105, looked up)
chain: B1 chain with N10A, K12A
modifications: cysteine pairing not given here; also: MBP fusion
As for B3, the binding result in assay [4] was “binds”.

B4: MBP-Sgo1(51-105) N61I, untagged (dimerization assay) (domain or fragment, human, UniProt Q5FBB7 51-105, looked up)
chain: B1 chain with N11I
modifications: cysteine pairing not given here; also: MBP fusion
As for B4, in assay [5], the binding result is reported as “binds”.

B5: Sgo1(51-105) (peptide, UniProt Q5FBB7 51-105, looked up)
chain: B1 chain
As for B5, the “stoichiometry N” value in assay [1] turned out to be 2 Sgo1 per PP2A holoenzyme. For the same molecule, the binding result in assay [6] is “binds”.

B6: MBP-Sgo1(51-105) Y57A/N60A, untagged (dimerization assay) (domain or fragment, human, UniProt Q5FBB7 51-105, looked up)
chain: B1 chain with Y7A, N10A
modifications: cysteine pairing not given here; also: MBP fusion
For the molecule B6, the binding result in assay [7] is on record as “binds”.

Regarding STLLKNYQDNNKMLVLALENEKSKVKEAQDIILQLRKECYYLTCQL (peptide, UniProt Q5FBB7 51-96, looked up) [Sgo1(51-96) peptide], the binding result in assay [8] is listed as “binds”.

As usually defined, the stoichiometry N is a count of units in the complex or per binding partner.
